{"source": "the DeepSol protein solubility set"}
{"assay": "soluble on expression in E. coli; label from the status in PepcDB or PDB records"}
{"sequence": "MMGTAWPPPELADVFAQQDIWSAWYAGTPEGLTDAYLNAPNDRPAARRKGLLARLGRWFWGQPTPMGERPSKLHVPLAGAIAAVSANLLFGAPLNLTVDDAATQERLDQLADDTTYAVLREAAEMSAALGGVYLRVVWDQSIQDKPWLVAASPDIAVPEWKWGRLSAVTFWNVIREDANTVVRQLERHEPGWIRHSVWIGSANELGVQMALTDFPETAGLADLVIDGDGIPTGTPKLTAQYIPNLKPNKLWRHLPAAANLGRSDFSGVEALMDALDEAYSDWMRDLRTGKARLLVGTEVLENLGKGQGAHFDIDRELFAPLNLEPGEDKGSVIEQVQFNIRTEEHRALCADLAERIILGAGYSLQTFGVTSEGSGNPTATEIAARERQSLTTRANKTSYWRPALAHLFGVLLEIDRTVFRSQVVPQIPDVEFPDVVTPDPGETARQLNDLNTAGAISTYEKVRRLNPDWRDEQVLEEVARIKADQAEAKPQPTHPARAQEPAGQPEKSPEGSQVNEDVSEPLVAR", "soluble on expression in E. coli": "not soluble"}
{"sequence": "MMIEGLEKMLAKGVDNALLRFGLGKGYLDAGDAERAAEHLQRCVEQDPKYSAGWKLLGKARQAAGDLAGARQAWEQGLATAATHGDKQAEKEMTVFLRKLDRART", "soluble on expression in E. coli": "not soluble"}
{"sequence": "MMKALILAGGSGERFWPLSTPETPKQFLKLFGNKSLMRWTFERVLEEMDPKDVIVVTHKDYVERTKKELPELPDENIIAEPMKKNTAPACFIGTKLADDDEPVLVLPADHRIPDTKKFWKTVKKALDALEKYDGLFTFGIVPTRPETGYGYIEIGEELEEGVHKVAQFREKPDLETAKKFVESGRFLWNSGMFLWKAREFIEEVKVCEPSIYENLKDVDPRNFEELKKAYEKVPSISVDYAVMEKSKKVRVVKADFEWSDVGNWSSVREIEGYTEESDEVILVDSDRVFVKTHNKPIAVVGLSDVIVIDTPNGILICKEEYAQKVREVVKKLFRTS", "soluble on expression in E. coli": "soluble"}
{"sequence": "MMKQIPYGLTDFARIQKDNYYYVDKTMFIERIEMQPAYLFLIRPRRFGKSLTLAMLEAYYDVVYANDFDELFGHLYIGQHPTPKHNCYLIMRFNFSEVSSNVNEVERSFKLHCCSKLRDFVFKYEDLLGKEIWDVLDEEIQQDPGAFLSAINSYASRKGNLPIYLLIDEYDNFTNTILSTYGTEYYQKATHGEGFVRGFFNVIKAATTGTGSALQRMFITGVSPVTMDDVTSGFNIGTNITTDPWFNDLVGFSEAELREMLTYYKEQGVLMQTVDETIVMMKPNYDNYCFSRSRLADCMFNSDMVLYFMKSFVLHGEKPDEIVDPNIRTDFNKLAYLIRLDHGLGENFSVIKEIAEQGEITTDIATHFSALEMTDVRNFKSLLFYFGLLSIKGVDMVGRPILHVPNLVVREQLFSFLIQGYIKHDIFKIDMNRMTMLFENMAFRGDWKPLFNFIAEAIREQSRIREYIEGEAHIKGFLLAYLGMYRYYQLYPEYELNKGFADFLFKPSPSVPVMPPLTYLLEVKYAKAGASEKEIRALADGAREQLLRYSQDELVTEARAKGGLKLITIVWCSWELVLLEEVL", "soluble on expression in E. coli": "not soluble"}
{"sequence": "MMKRQTWPEPTIPVSQQFARGNFPVGIICEHPGEVNAYRYSSEEKRAMEHATEEQVQDLRCAAEVHRQVRRYAQSFIKPGISLLSMTDRIEKKLEELIEKDGLNRGQAFPTGCSLNHVAAHYTPNTGDKCVLMYDDVMKVDFGTQINGRIIDCAWTVAFKDEYEPLLTAVKEATYEGVKQAGIDVRLCDVGAAIQEVMESYEVELNGKVYPVKSIRNLSGHTIAPYVIHGGKSVPIVRGGEATRMEEGELFAIETFGSTGRGFVQEDMECSHYMMVPGGEKTQVRSDKAQQLLRHIHKTYNTLAFARKWLDRDGHDRHLLNLNQLVEAGAVNKYPPLCDIRGCYTAQLEHTLILKPTAKEILSKGDDY", "soluble on expression in E. coli": "not soluble"}
{"sequence": "MMKTLSPLKASLFAILASSTVLVTTVSAEPSQECDHPRSEFHKRGDRMGHDGMHKMFEGLELTDTQKADIKKLFAEQRAARSDDKPTKEERLARRAEMHALITAATFDETQAKALIGAQQEKRQAQAIERMKMQNQIYNLLTPEQQAKFKARFEAHTGKEPRSLEHHHHHH", "soluble on expression in E. coli": "not soluble"}
{"sequence": "MMLAMIKDPFARLGLDREVLTVSQLNGRARVLLEDVFSSIWVEGEISNLSRPASGHVYFTLKDSGAQVRCALFRQSAARVRQALKDGLQVKVRGKVSLFEGRGDYQLILDTVEPAGDGALRLAFDALKAKLSDEGLFSADRKVALPLHPQRIGIISSPTGAVIRDIISVFRRRAPRVELTLIPTAVQGREAINQIVRALKLADARGFDALILARGGGSLEDLWCFNEEAVARAIDACVTPIVSAVGHETDVSISDFVADVRAPTPSAAAELLAPDSSDLHRRVDNLHRRLVSRMQDRLMRERLRLEGISRRLRHPGERLRQQSQRLDDLDMRLRRAFEQSMHKKQVRLAHMESRLTAQHPGRTLAFLRQRLDALAERLPRAIREQIKVRKLQLQSQMQTLNVVSPLATLGRGYSILLDERGHAIRNAAQTQPGQRLTARLGEGELQVRVEDNHLTPVTLSLLD", "soluble on expression in E. coli": "not soluble"}
{"sequence": "MMLITDTGVPERYIDTDEWGGEVMLRLDDGWCAALDRNTMMCTIYEKRPLICREFEAGAEDCLTERKGIATAYLLEHHHHHH", "soluble on expression in E. coli": "not soluble"}
{"sequence": "MMLRTEEMILNVGPQHPSTHGVFRLILKIDGEIIQEATPVIGYLHRGTEKIAEGLQYTQIIPYTDRMDYLSAMTNNYVLCHAVETMMGIEVPERAEYLRVLAMELGRIASHLVWWGTYLLDLGATSPFLYAFREREMIINLLNELSGARLTFNYMRIGGVKWDAPDGWIDKVKQFVPYMREKLHGYHELVTGNEIFRQRVTGVGRYTKEEAISYSLSGVNLRSTGVKWDLRKDEPYSIYDRFDFDVPVRDSGDCLARYECRMAEIEQSLCIIEQACEQFPPEGPIMGKVPRIIKAPPGETFVRIEAPRGEIGCYIASDGKKEPYRLKFRRPSFYNLQILPKLLKGENLANVIAILGSIDIVLGEVDG", "soluble on expression in E. coli": "not soluble"}
{"sequence": "MMLSALVYTYPYKRSSGFERLRDRIHRKRHRHQKPSVMNETDELYEMSMVTQKSDDDSDLASRIRSEKSIPSTLTTPPTVTYHRRHHHHHKKNRREKNEELCESQRKIVELNTQSHEFDPPFVVEVRCLNSQSPIGSLLSGQEQTCFKGMLRCVQQYADVHVSRRSVGSIHWHPFTIPDAPISCQCMWPVDRYGHQEF", "soluble on expression in E. coli": "soluble"}
{"sequence": "MMMDILMYLFETYVHSDADLQVDQDQLEDELLRAGFHQKDIYKALHWLEELAALQQTDAQTAIAKSAPTSMRIYAPEEIERLDLESRGFLLFLEHINVLTPETREMVIDRVMGLETDEFELDDLKWIILMVLFNVPGNENAYTVMEELLYSKEQGILH", "soluble on expression in E. coli": "not soluble"}
{"sequence": "MMNALELQALRRIFDMTIEECTIYITQDNNSATWQRWEAGDIPISPEIIARLKEMKARRQRRINAIVDKINNRIGNNTMRYFPDLSSFQSIYTEGDFIEWKIYQSVAAELFAHDLERLC", "soluble on expression in E. coli": "soluble"}
{"sequence": "MMNEKNPPLVSILIPTYNRPHYFKIALESALAQTYSNIEIIIGDDSTNDETATLIREQYLPNYKNITYIRNTPTLGQFHNDLMLIEKSNGEYINFLMDDDVFYKHKIQKMMTYFEQDPNKNLALVTSYRVRIDDHGNLIGDSHPTQRLYSEDTPLNGIFLGNWMLKGGHNIIGEPTTTLFRKELLTEPFGTLKERQYSCSVDMASWISLLSKGNAIYISEPLSQFRYHAGQQIHNKLLQGCEDFTHLVITAKEYGFLQNTTDYRAALLSAYQWCKSSLKYYLHQLDIFPDAHVRLSHCLDIIIKELNNLEHHHHHH", "soluble on expression in E. coli": "soluble"}
{"sequence": "MMNKNKKLMVMAGGTGGHVFPGLAVAKQLQQQGWQIRWLGTADRMEAELVPKHGIEIDFIQVKGLRGQGLMRLLKAPFQIVNAILQARRHLLTYQPDAVLGMGGYVSGPGGIAAWLLGIPVVLHEQNAVAGLTNQWLAKIARRVFQAFPGAFADASVVGNPVRQDVVQLAAPEQRFATRNGAIRILVMGGSQGARILNQTLPAVMAALGEGYEIRHQAGKNSQQDVAEAYAAAGVESAQVTEFIDDVADAYAWADLLICRSGALTVSEVSAAGVGAIFIPFMHKDRQQALNADHLVACGAAKMIEQPELSVEKLTQMVRELDRAQLLSMAQKARQAAKLDADKVVAQAIIAITE", "soluble on expression in E. coli": "not soluble"}
{"sequence": "MMRKLKTLPPTLRDKNRYIAFEIISDGDFTKDEVKELIWKSSLEVLGETGTAIVKPWLIKFDPNTKTGIVRSDREYVEYLRFALMLVSEFNGKRLIIRTLGVSGTIKRLKRKFLAKYGWK", "soluble on expression in E. coli": "soluble"}
{"sequence": "MMRRILLKSIKFYRIYLSPLKRNACCKFIPTCSQYAIDAIEKYGALKGSFMAVKRILRCNPFSKGGYDPVKLEHHHHHH", "soluble on expression in E. coli": "not soluble"}
{"sequence": "MMSIAQVRSAGSAGNFYTDKDNYYVLGSMGERWAGRGAEQLGLQGSVDKDVFTRLLEGRLPDGADLSRMQDGSNRHRPGYDLTFSAPKSVSMMAMLGGDKRLIDAHNQAVDFAVRQVEALASTRVMTDGQSETVLTGNLVMALFNHDTSRDQEPQLHTHAVVANVTQHNGEWKTLSSDKVGKTGFIENVYANQIAFGRLYREKLKEQVEALGYETEVVGKHGMWEMPGVPVEAFSGRSQTIREAVGEDASLKSRDVAALDTRKSKQHVDPEIKMAEWMQTLKETGFDIRAYRDAADQRADS", "soluble on expression in E. coli": "soluble"}
{"sequence": "MMSISQLLGCISKQVDGQYIAQYEELTLRSVFQPIYKKDLSIIGLEALVRISTADGSMIRPDLFFQSPSISEHVQLNVERLSRLIHIKNFGQSRYRNKKLFLNVLPRAAEMLAKDLSYSHLLKQVICEADLCREQIVMELVELSAGDESFLYKATKELSDGGFKLAIDDYGINASTIERVKCVRPDIIKMDRSLLLKYEDGDFSALIEALALAKELSSKTVIEGIETEHQLNLMKKLGFDMYQGYLLAMPQTLEMYEEAKTA", "soluble on expression in E. coli": "not soluble"}
{"sequence": "MMSTLALVSLAIFGIAVVCAAPKPATVPVANEEDYLAALYGFEAPGSQFKGAPLQSKRHISPSYDVEIDAGNMRNLLDIGKRSAPMASDYGNQFQMYNRLIDAGKKKRSPAISPAYQFENAFGLSEALERAGRR", "soluble on expression in E. coli": "not soluble"}
{"sequence": "MMTESHGYLSNNLPVKIINDIIYATQLVEDLVLGKIKIVDFLKSYNNFYCWLGFDELPQSEKIKFLSYLNILSIHKEIQDETVNRVYTD", "soluble on expression in E. coli": "not soluble"}
{"sequence": "MNACVSVVCYKSKTLSNGENPLMLQVSKGGKRKYQSLGISINPKYWDFTRNKPKPNCPNKEYIQKIILDKQRELQQRMLELNSEQKEYTTTTLLNNENTKFELKTVSMFYKELIEQYTREDKCGNRLIYKGSFNSLKVFTNGKLDIPFNEIDIAWLNKYEKWLRSKGNRETTISLLFRTLRSAYNKAIKAKCARKSDYPFDDYKINKFDTTTQKRAIAKTDVLKFTTEVQPIGKQQYMELSKDIFVFSYLCGGINFTDIANLTNENIQNGRLHYIRQKTKKPIKIGIPQEAMQIIEKYSKESKG", "soluble on expression in E. coli": "not soluble"}
{"sequence": "MNATINDDDIDDVKKALDHATQAAHKAAAELTAKLRSDFVEYGNGGTAGQVLIHIYGPGLIYGFSAFPVQIRLEIPNQPVPFNKVHITEVTAYVIDENNRTYWTRVWNSSTFRQGGYIADTLDLVTVMKAPDPLVYQIRDAIVTGQISRELYDKIWNTSTTHFEIRVIVKGYQEAWKTDSSVSNQSSCPSDGHWYEDACWVHDKDIDFTLKAETTTAWGHVTGTNDVATIDGGMLGSLPIKFLQSLDLSGKWVLYQNKYAGALSDFIIITAASPVHVLNSTAMYKFLITPNPGYFQPANPKISDEYRFVTLRVIEGGRMELADTTTGHIGDLTEPTFFGLTAHYTDAPGTLDYHALGLVYAYVERDDGVKIPIWLAAEPMISVLSNTYTVMKDQDVKNLIDLYKKKDREKINATTKAMINSLQEKIDEAEQLLAKAKGMNNENAIEYAQGAIDEYKAAINDLQKAAQQDDYQMFLNYLNAAKKHEMAGDYYVNAARKALNGDLEQAKIDAEKAKEYSNLAKEYEPG", "soluble on expression in E. coli": "soluble"}
{"sequence": "MNATPEKADDLIVVGKIFSVHGVRGEVKVYSFTDPIENLLDYPRWTLRHEGKVKQVELVSGRGSQKGLVVKLKGLDDRDEARLLSGYEICIPRSLLPNLAADEYYWYQLVGLKVINQDEQLFGKVDHLLETGANDVMVVKPCAGSLDDRERLLPYTEQCVLAIDLEAGVMRVEWDADFLEHHHHHH", "soluble on expression in E. coli": "soluble"}
